Data taken from patent publication US20220204567A1 (published 2022).

What was measured:
Assay in all cases: ELISA
[1] = biological target: wild type HA ectodomain of H3 A/Hong Kong/1/1968 with C-terminal Foldon trimerization domain
[2] = biological target: wild type HA ectodomain of H1 A/Michigan/45/2015 with C-terminal Foldon trimerization domain
[3] = biological target: wild type HA ectodomain of H3 A/Indiana/11/2011 with C-terminal Foldon trimerization domain
[4] = biological target: UFV4239, wild type HA ectodomain of H1 A/California/07/2009 without Foldon trimerization domain

B1: CR8020 (antibody, V domains shown)
VH: QVQLQQSGAEVKTPGASVKVSCKASGYTFTSFGVSWIRQAPGQGLEWIGWISAYNGDTYYAQKFQARVTMTTDTSTTTAYMEMRSLRSDDTAVYYCAREPPLFYSSWSLDNWGQGTLVTVSS
VL: EIVLTQSPGTLSLSPGERATLSCRASQSVSMNYLAWFQQKPGQAPRLLIYGASRRATGIPDRISGSGSGTDFTLTISRLEPADFAVYYCQQYGTSPRTFGQGAKVEIK
Work on B1 yielded an EC50 [1] of 1.6 nM, an EC50 [2] of over 70 nM and an EC50 [3] of 1.9 nM. The EC50 [4] was over 70 nM.

B2: CR9114 (antibody, V domains shown)
VH: QVQLVQSGAEVKKPGSSVKVSCKSSGGTSNNYAISWVRQAPGQGLDWMGGISPIFGSTAYAQKFQGRVTISADIFSNTAYMELNSLTSEDTAVYFCARHGNYYYYSGMDVWGQGTTVTVSS
VL: SYVLTQPPAVSGTPGQRVTISCSGSDSNIGRRSVNWYQQFPGTAPKLLIYSNDQRPSVVPDRFSGSKSGTSASLAISGLQSEDEAEYYCAAWDDSLKGAVFGGGTQLTVL
Binder B2 has an EC50 [1] of 12.7 nM and an EC50 [3] of 25 nM.

B3: CR6261 (antibody, V domains shown)
VH: EVQLVESGAEVKKPGSSVKVSCKASGGPFRSYAISWVRQAPGQGPEWMGGIIPIFGTTKYAPKFQGRVTITADDFAGTVYMELSSLRSEDTAMYYCAKHMGYQVRETMDVWGKGTTVTVSS
VL: QSVLTQPPSVSAAPGQKVTISCSGSSSNIGNDYVSWYQQLPGTAPKLLIYDNNKRPSGIPDRFSGSKSGTSATLGITGLQTGDEANYYCATWDRRPTAYVVFGGGTKLTVL
B3 was tested, and the EC50 [1] was over 70 nM, the EC50 [2] was 0.6 nM and the EC50 [3] was over 70 nM. It also gave an EC50 [4] of 1 nM.
